Test results published in PMC6948101 (Nature, 2019).

Molecular target: the molecule itself
Experiment: SEC-MALS

B1: DHR10-mica6-NC (designed binder)
chain: GSGGSSEVLELAIRLIKEVVENAQREGYDISEAAAAAAEAFAAVAEAAKAAGITSSEVLELAIRLIKEVVENAQREGYDISEAAAAAAEAFAAVAEAAKAAGITSSEVLELAIRLIKEVVENAQREGYDISEAAAAAAEAFAAVAEAAKAAGIASSEVLELAIRLIKEVVENAQREGYDISEAAAAAAEAFAAVAEAAKAAGITSSEVLELAIRLIKEVVENAQREGYDISEAAAAAAEAFAAVAEAAKAAGIASSEVLELAIRLIKEVVENAQREGYDISEAAAAAAEAFAAVAEAAKAAGIGWE
For B1, the “stoichiometry N” value was 2.1 times the MW of a monomer.
